Assays:
[1] = target: T1, recombinant mouse PD-1/Fc (Mus musculus, UniProt Q02242); test: PD-1 binding ELISA, murine B7-DC-Ig; details: plates coated with recombinant mouse PD-1/Fc, compared with wild type, FIG. 1B
T1 construct: Fc; purchased R&D Systems
Method: (§1) 96-well ELISA plates were coated with 100 μL 0.75 ug/mL recombinant mouse PD-1/Fc (R&D Systems) diluted in BupH Carbonate/Bicarbonate pH 9.4 buffer (Pierce) for 2 hours and then blocked with BSA solution (Candor-Bioscience) for 90 minutes. […] Absorbance at 450 nm was read using a plate reader (Molecular Devices) and data were analyzed in SoftMax using a 4-parameter logistic fit.

[2] = system: CT26 colorectal tumor cells; details: CTX 100 mg/kg alone, day 10; all mice in the group
Method: Mouse colorectal tumor cell line, CT26, was obtained from ATCC. A master cell bank at Passage 4 was generated following ATCC guidelines.
One vial of tumor cells was thawed from the cryopreserved stocks and grown for two passages prior to inoculation.
CT26 cells were split at 1:5 dilution with 30 mL complete medium (RPMI+10% FBS, 2 mM L-Glu, and 1×P/S) for two days culture or at 1:10 dilution with 30 ml complete medium for 3 days culture.
CT26 cells were harvested by aspirating medium, rinsing the flask with 5 mL PBS, adding 5 mL trypsin, incubating at 37° C. for 2 min, and then neutralizing with 10 mL complete medium. After centrifuge at 600×g (˜1000 rpm) for 5 min, media was aspirated and the cell pellet was resuspended by pipetting with 10 ml plain RPMI. This wash step was repeated for three times.
Cell number and viability of the inoculated cells were analyzed by trypan blue dye staining with proper dilution (e.g. 1:5 dilution, 10 μL cells+40 μL trypan blue) and confirmed by NOVA cell count during the last wash step.
On Day 9, all the tumor-bearing mice were first grouped into a rat cage and randomly divided the mice to experimental groups. CTX solution was reconstituted by 1×PBS to 4 mg/mL. Mice were intraperitoneally (IP) injected with 0.5 mL of CTX solution resulting in 2 mg for a 20 gram mouse, i.e. 100 mg/kg.
The same dose was given 2 time a week for 4 weeks, total 8 doses.

[3] = target: T2, recombinant human PD-1/Fc (Homo sapiens, UniProt Q15116); test: PD-1 binding ELISA, human B7-DC-Ig; details: plates coated with recombinant human PD-1/Fc, four different lots, FIG. 1A
T2 construct: Fc; purchased R&D Systems
Method: as §1, with “human” for “mouse”, “(Jackson ImmunoResearch)” for “(Candor-Bioscience)”, “90-120” for “90”

P815 mastocytoma cells = test: P815 mastocytoma tumor model; type: in vivo, DBA/2 mice
Method: P815 mastocytoma cells were derived from DBA/2 mice after methylcholanthrene (MCA) treatment. Injection of 5×10^4 cells SC can result in mortality approximately 35 days post tumor inoculation.
DBA/2 mice (6-10 weeks of age, females) were first challenged with 5×10^4 live P815 cells injected SC in the flank. Six days later, the mice were treated with murine B7-DC-Ig via IP injection. […] Control groups were treated with vehicle only or with murine IgG. Tumor size was measured with digital calipers every 2-3 days. Mice were euthanized and defined as dead when their tumor size reached or exceeded 1000 mm^3, according to protocols approved by the Institutional Animal Care and Use Committee (IACUC) of the American Red Cross (ARC; the site of Amplimmune's vivarium). Surviving tumor free mice were re-challenged with P815 tumor cells on Day 52.
The tumor-free mice were then re-challenged with 5×10^4 P815 cells administered to the flank opposite the primary inoculation site on Day 52.

[4] = system: more aggressive, less immunogenic tumor types; test: Activity against more aggressive, less immunogenic tumor types; type: in vivo; details: single agent
[5] = 100 ug per injection IP, 2 times per week, up to 6 doses
[6] = 5 mice per group, 5 mg/kg IP biw 3 weeks starting Day 6

T1 sequence (Q02242 with tags, fused parts or gaps limits assumed): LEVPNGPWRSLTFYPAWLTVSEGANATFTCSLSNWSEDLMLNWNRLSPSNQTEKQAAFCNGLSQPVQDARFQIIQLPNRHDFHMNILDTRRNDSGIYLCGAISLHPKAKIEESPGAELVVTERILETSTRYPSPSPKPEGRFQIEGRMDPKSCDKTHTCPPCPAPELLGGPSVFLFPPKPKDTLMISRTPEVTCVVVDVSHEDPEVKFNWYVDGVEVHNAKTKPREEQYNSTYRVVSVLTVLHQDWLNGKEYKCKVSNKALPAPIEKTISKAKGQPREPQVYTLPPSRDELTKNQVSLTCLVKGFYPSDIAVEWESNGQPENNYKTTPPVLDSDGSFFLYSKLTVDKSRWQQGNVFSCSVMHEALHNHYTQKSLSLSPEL
T2 sequence (Q15116 with tags, fused parts or gaps limits assumed): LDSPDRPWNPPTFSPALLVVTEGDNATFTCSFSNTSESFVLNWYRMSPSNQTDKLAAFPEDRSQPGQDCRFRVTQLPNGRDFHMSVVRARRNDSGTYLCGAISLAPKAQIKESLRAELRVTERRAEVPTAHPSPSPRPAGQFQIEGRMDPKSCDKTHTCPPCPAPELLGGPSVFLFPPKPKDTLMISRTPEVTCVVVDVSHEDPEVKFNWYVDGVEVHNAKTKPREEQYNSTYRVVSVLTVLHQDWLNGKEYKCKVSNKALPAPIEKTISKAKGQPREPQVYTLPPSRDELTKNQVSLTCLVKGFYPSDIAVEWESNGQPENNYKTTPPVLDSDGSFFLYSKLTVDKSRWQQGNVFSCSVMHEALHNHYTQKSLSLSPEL

Molecule: D111S: murine B7-DC-Ig with the D111S substitution
- PD-1 binding activity (OD450) [1]: reduced binding to PD-1

Molecule: K113S: murine B7-DC-Ig with the K113S substitution
- PD-1 binding activity (OD450) [1]: reduced binding to PD-1

Molecule: O=P1(N(CCCl)CCCl)NCCCO1 (stereo not shown) [CTX, cyclophosphamide]
- outcome of mice with established tumors [2]: died as a result of tumor growth or were euthanized

Molecule: B7-DC-Ig: human PD-L2 (B7-DC) extracellular domain fused to hinge, CH2 and CH3 of human immunoglobulin Cγ1 chain (SEQ ID NO:56/57)
- PD-1 binding activity (OD450) [3]: binding

B1: Murine B7-DC-Ig: murine PD-L2 (B7-DC) extracellular domain fused to hinge, CH2 and CH3 of murine immunoglobulin Cγ2a chain (SEQ ID NO:53/54) (protein, listed as Mus musculus)
chain: LFTVTAPKEVYTVDVGSSVSLECDFDRRECTELEGIRASLQKVENDTSLQSERATLLEEQLPLGKALFHIPSVQVRDSGQYRCLVICGAAWDYKYLTVKVKASYMRIDTRILEVPGTGEVQLTCQARGYPLAEVSWQNVSVPANTSHIRTPEGLYQVTSVLRLKPQPSRNFSCMFWNAHMKELTSAIIDPLSRMEPKVPRTWEPRGPTIKPCPPCKCPAPNLLGGPSVFIFPPKIKDVLMISLSPIVTCVVVDVSEDDPDVQISWFVNNVEVHTAQTQTHREDYNSTLRVVSALPIQHQDWMSGKEFKCKVNNKDLPAPIERTISKPKGSVRAPQVYVLPPPEEEMTKKQVTLTCMVTDFMPEDIYVEWTNNGKTELNYKNTEPVLDSDGSYFMYSKLRVEKKNWVERNSYSCSVVHEGLHNHHTTKSFSRTPGK
- mice in which tumor was eradicated (P815 mastocytoma cells; [5]): two
- mice responded to treatment (P815 mastocytoma cells; [5]): Four of 5
- mice with delayed tumor growth during treatment (P815 mastocytoma cells; [5]): two
- # Tumor <500 mm^3 (P815 mastocytoma cells; [6]): 2
- # Tumor free (P815 mastocytoma cells; [6]): 2
- # Tumor ≧500 mm^3 (P815 mastocytoma cells; [6]): 1
- outcome of re-challenge of tumor-free mice (P815 mastocytoma cells; re-challenged with 5×10^4 P815 cells on Day 52, opposite flank, through 74 days after primary inoculation): remained tumor free
- anti-tumor activity alone in the P815 model (P815 mastocytoma cells; single agent): effective
- anti-tumor activity alone against more aggressive, less immunogenic tumor types [4]: minimal activity

— patent US20110195068A1, “PD-1 ANTAGONISTS AND METHODS OF USE THEREOF” (priority 2008, published 2011)
